Results reported in US11274129B2, “Methods for protein tyrosine phosphorylation profiling with variant SH2 domains” (priority 2016, dated 2022).

Tested on: pTyr-including peptides from pervanadate-treated Jurkat cells
Test: Enrichment of pTyr-including peptides from pervanadate-treated Jurkat cells by affinity reagents, 1D LC-MS/MS
Set-up: species or system human
Conditions: 3 mg Jurkat peptides
Method: Experiments were conducted to determine the relative efficacy of the variant Src SH2 domains and commonly used anti-pTyr antibodies as affinity reagents for pTyr-including peptides from biological samples. His6/GST-tagged TrM Src SH2 domain (SEQ ID NO: 11) and His6-tagged QuadM Src SH2 domain (SEQ ID NO: 13), as well as anti-pTyr antibodies, were prepared in functionally-equivalent molar amounts by using half the molar amount of the antibodies relative to the SH2 domain variants given that each antibody molecule has two binding sites for its antigen.
The first experiment tested the relative ability of the following affinity reagents to extract pTyr-including peptides from a peptide mixture prepared from Jurkat cells: a His6/GST-tagged TrM Src SH2 (SEQ ID NO: 11), a His6-tagged QuadM Src SH2 (SEQ ID NO: 13), the anti-pTyr antibody 4G10 (agarose conjugate, obtained from Millipore), and a mixture of commercially-available anti-pTyr antibodies. […] The two SH2 affinity reagents were also tested at a 30× amount; the antibodies were not tested at a 30× amount due to the prohibitive cost of doing so. The purified SH2 affinity reagents were prepared as described in Example 1. The antibody mixture contained 4G10 (as above), PY99 (obtained from Santa Cruz Biotechnology), and P-Tyr-100 (slurry of PTMScan® Phospho-Tyrosine Mouse mAb, obtained from Cell Signaling Technology). Since the concentration of P-Tyr-100 is unknown, the amount was used as recommended by the vendor (i.e., 4 μL for 1 mg peptide digest).
FIG. 2A presents a schematic of the experimental design. Each amount of His6-tagged SH2 domain variant or antibody was subjected to a binding experiment with 3 mg of a peptide mixture prepared from pervanadate-treated Jurkat cells.
Jurkat cells (obtained from ATCC) were cultured in a humidified atmosphere of 5% CO2 at 37° C. in Roswell Park Memorial Institute 1640 medium (RPMI-1640) supplemented with 10% bovine serum and 100 U/mL of streptomycin and penicillin.
The cells were again collected by centrifugation. The cell pellets were gently homogenized in an ice-cold lysis buffer containing 8 M urea, 50 mM tris(hydroxymethyl)aminomethane (Tris)-HCl (pH 7.4), 2% protease inhibitor cocktail (v/v, obtained from Sigma-Aldrich), 1% Triton X-100 (v/v), 1 mM NaF, and 1 mM Na3VO4, followed by sonication at 400 W for 120 s. After centrifugation at 25,000 g for 1 h, proteins were precipitated in ice-cold acetone/ethanol/acetic acid (50/50/0.1, V/V/V) solution. Subsequently, the proteins were diluted in reducing buffer containing 100 mM triethylammonium bicarbonate (TEAB) buffer (pH 8.2) and 8 M urea, and the final protein concentration was determined by Bradford assay. The protein suspension was reduced in 10 mM dithiothreitol (DTT) at 37° C. for 2 h, and it was then alkylated in 20 mM iodoacetamide (IAA) in darkness at room temperature for another 30 min. Trypsin digestion was performed at 37° C. overnight with an enzyme-to-protein ratio of 1/25 (w/w). The resulting peptide mixture was stored at −80° C. for further analysis.
Desalted Jurkat peptides (30 mg) were dissolved in ice-cold immunoaffinity purification (IAP) buffer and then split into 10 aliquots with 3 mg of Jurkat peptides each. Binding experiments were performed with the amounts of antibody (1×, 5×) or SH2 domain variant (1×, 5×, 30×) set out in Table 1 and FIG. 2A.
For antibody-based enrichment, 4G10 or the antibody mixture was incubated with the sample at 4° C. overnight while rotating. The beads were washed three times with ice-cold IAP buffer and twice with ice-cold water. To release the bound peptides, the beads were eluted twice with 200 μL 0.15% trifluoroacetic acid (TFA) for 15 min at room temperature.
For SH2-based enrichment, Ni-NTA beads containing the purified SH2 proteins were washed extensively in twenty column volumes of PBS buffer (pH 7.0) containing 20 mM imidazole. […] The washed beads were incubated with the peptide mixture at 4° C. overnight while rotating. […]

B1: Triple mutant: TrM human Src SH2 domain variant with Thr183Val, Cys188Ala and Lys206Leu; His6/GST-tagged form SEQ ID NO: 11 (protein)
chain: DSIQAEEWYFGKITRRESERLLLNAENPRGTFLVRESETVKGAYALSVSDFDNAKGLNVKHYLIRKLDSGGFYITSRTQFNSLQQLVAYYSKHADGLCHRLTTVCPTSK
modifications: SH2 protein domain; TrM human Src SH2 domain
In the case of B1, the “Number of pTyr sites identified” value (0.375 nmol (1x) pTyr-binding sites) is reported as 578, the “Number of pTyr sites identified” value (1.875 nmol (5x) pTyr-binding sites) is reported as 1060 and the “Number of pTyr sites identified” value (11.25 nmol (30x) pTyr-binding sites) is reported as 1165.
